In this assay the target is T1, varicella-zoster virus glycoprotein H (varicella-zoster virus, UniProt P09260 18-841, limits assumed).
T1 sequence (looked up): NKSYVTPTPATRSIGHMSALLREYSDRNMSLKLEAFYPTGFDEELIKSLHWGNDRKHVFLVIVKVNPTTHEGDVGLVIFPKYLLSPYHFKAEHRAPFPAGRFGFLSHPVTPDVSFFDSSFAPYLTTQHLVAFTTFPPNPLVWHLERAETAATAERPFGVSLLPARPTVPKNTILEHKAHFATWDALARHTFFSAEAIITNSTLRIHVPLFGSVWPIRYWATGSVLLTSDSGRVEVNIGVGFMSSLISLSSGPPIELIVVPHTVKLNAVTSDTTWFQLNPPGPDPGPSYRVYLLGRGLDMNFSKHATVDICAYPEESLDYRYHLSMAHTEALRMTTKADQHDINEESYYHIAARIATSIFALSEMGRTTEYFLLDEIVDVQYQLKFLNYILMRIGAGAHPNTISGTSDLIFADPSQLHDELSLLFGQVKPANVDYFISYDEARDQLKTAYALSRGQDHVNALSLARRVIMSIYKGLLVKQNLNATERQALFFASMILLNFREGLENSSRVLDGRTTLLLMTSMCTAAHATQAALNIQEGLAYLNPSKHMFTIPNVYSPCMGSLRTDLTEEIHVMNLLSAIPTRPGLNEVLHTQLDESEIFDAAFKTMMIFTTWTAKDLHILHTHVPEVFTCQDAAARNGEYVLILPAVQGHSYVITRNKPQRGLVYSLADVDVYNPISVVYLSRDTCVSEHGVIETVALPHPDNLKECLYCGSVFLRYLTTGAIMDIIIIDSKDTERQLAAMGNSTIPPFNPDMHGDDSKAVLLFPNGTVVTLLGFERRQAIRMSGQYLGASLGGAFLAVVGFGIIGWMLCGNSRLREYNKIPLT
The experiment in a line: cell-based or functional assay.

B1: 302-1G9 (antibody, IgG1, V domains shown)
VH: QVQLVQSGAEVKKPGASVKVSCEAFGYTFSNYGFTWVRQAPGQGLEWMGWISASNANTKYGQKFRGRVTLTTDTSTSTAYMELRNLGYDDTAMYYCARDRGGSLAMVVGLDHWGQGTLVTVSS
VL: DIQMTQSPTSLSASVGDRVTITCRASQSIGGYLNWYQQNPGKAPKLLIYAASTLQRGVPSRFSGGGSGTDFTLTITSLQPEDFATYYCQQCYSAELTFGGGTKVEIK
With B1, the “In vitro neutralization IC50 (with complement)” value amounted to 0.06 µg/mL and the “In vitro neutralization IC50 (without complement)” value amounted to 0.09 µg/mL.

B2: RM-2D6 (antibody, IgG1, V domains shown)
VH: EVQLVESGGGVVQPGRSLRLSCAASGFMFSSYGMHWVRQAPGKGLEWVAAVSHDGTNDLYADSVKGRFSISRDNSKNTLYLQMNSLRAEDTAVYYCAKTSWARFLEWTFDYWGQGTLVTVSS
VL: DIQMTQSPSSLSASVGDRVTITCRASQSINRYLNWYQQKPGKAPKLLIYGASSLQSGVPLRFSGSGSGTDFTLTISSLQPEDFATYYCQQSHSTPTFGQGTRLEIK
For the molecule B2, the “In vitro neutralization IC50 (with complement)” value was 0.03 µg/mL and the “In vitro neutralization IC50 (without complement)” value came to 0.23 µg/mL.
